According to article PMC3438196:
Read-outs that look alike come from different tables or passages of the source.

Key:
Assay in all cases: MAPPIT
[1] = molecular target: Gag MAPPIT prey (pMG2-Gag); details: stimulation with Epo; parent: est. 38; read off a plot
[2] = molecular target: Gagpol MAPPIT prey (pMG2-Gagpol)
[3] = molecular target: Gagpol MAPPIT prey (pMG2-Gagpol); remark: listed apart in the source

Substance	response (fold induction) [1]	percent of parent [2]	percent of parent [3]
Apobec3G MAPPIT bait (pCEL-Apobec3G) (from UniProt Q9HC16) YFW125-127DY	2.2	–	–
Apobec3G-GFP MAPPIT bait (pCEL-Apobec3G-GFP) (from UniProt Q9HC16) D128G	–	11 % of WT	–
Apobec3G-GFP MAPPIT bait (pCEL-Apobec3G-GFP) (from UniProt Q9HC16) E191V	–	8 % of WT	–
Apobec3G-GFP MAPPIT bait (pCEL-Apobec3G-GFP) (from UniProt Q9HC16) H81L	–	–	33 % of WT
Apobec3G-GFP MAPPIT bait (pCEL-Apobec3G-GFP) (from UniProt Q9HC16) K79M	–	–	32 % of WT
Apobec3G-GFP MAPPIT bait (pCEL-Apobec3G-GFP) (from UniProt Q9HC16) K270E	–	–	67 % of WT
Apobec3G-GFP MAPPIT bait (pCEL-Apobec3G-GFP) (from UniProt Q9HC16) N20D	–	22 % of WT	–
Apobec3G-GFP MAPPIT bait (pCEL-Apobec3G-GFP) (from UniProt Q9HC16) Q237K	–	–	46 % of WT
Apobec3G-GFP MAPPIT bait (pCEL-Apobec3G-GFP) (from UniProt Q9HC16) R30L	–	5 % of WT	5 % of WT
Apobec3G-GFP MAPPIT bait (pCEL-Apobec3G-GFP) (from UniProt Q9HC16) R78W	–	–	6 % of WT
Apobec3G-GFP MAPPIT bait (pCEL-Apobec3G-GFP) (from UniProt Q9HC16) R122C	–	5 % of WT	–
Apobec3G-GFP MAPPIT bait (pCEL-Apobec3G-GFP) (from UniProt Q9HC16) R136S	–	24 % of WT	–
Apobec3G-GFP MAPPIT bait (pCEL-Apobec3G-GFP) (from UniProt Q9HC16) R238C	–	–	56 % of WT
Apobec3G-GFP MAPPIT bait (pCEL-Apobec3G-GFP) (from UniProt Q9HC16) W94R	–	13 % of WT	–
Apobec3G-GFP MAPPIT bait (pCEL-Apobec3G-GFP) (from UniProt Q9HC16) W269G	–	–	33 % of WT
Apobec3G-GFP MAPPIT bait (pCEL-Apobec3G-GFP) (from UniProt Q9HC16) Y222N	–	–	6 % of WT
